How the values were obtained:
[1] = target: GST‐LMO4 (UniProt P61968); experiment: ITC
[2] = target: T1, MBP‐Jacob‐262‐532 (UniProt Q9EPI6 262-532); experiment: pull-down
T1 sequence (looked up): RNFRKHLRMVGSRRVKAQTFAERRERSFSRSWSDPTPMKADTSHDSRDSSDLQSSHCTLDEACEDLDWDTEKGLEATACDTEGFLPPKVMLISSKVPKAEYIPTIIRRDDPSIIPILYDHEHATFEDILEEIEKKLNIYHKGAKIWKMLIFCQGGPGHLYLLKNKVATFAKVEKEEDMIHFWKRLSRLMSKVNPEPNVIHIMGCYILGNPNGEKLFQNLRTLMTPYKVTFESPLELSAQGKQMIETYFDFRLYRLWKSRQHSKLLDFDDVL

Q: With “Jacob (protein of the ITC experiment) (from UniProt Q9EPI6 1-532) (natural protein)” as the molecule, how does the Kd [1] read?
A: 370 nM

B1: bZIP domain of CREB (His‐SUMO‐CREB‐294‐341) (domain or fragment, UniProt P15337-1 294-341, looked up)
chain: REAARECRRKKKEYVKCLENRVAVLENQNKTLIEELKALKDLYCHKSD
Q: Does B1 bind [2]?
A: binds

Source: article PMC9929644 (The EMBO Journal, 2023)
